No end group written: not given here. *: point of attachment. Dansyl = CN(C)c1cccc2c(S(=O)(=O)*)cccc12
Target: FTase (protein farnesyltransferase) (UniProt P49354)

| Binder | Kd |
| --- | --- |
| Dansyl-TKCLTS [dansyl-TKCLTS] | 5 nM |
| Dansyl-TKCVLA [dansyl-TKCVLA] | 4.6 nM |
| Dansyl-TKCKIF [dansyl-TKCKIF] | 2.5 nM |
| Dansyl-TKCSVS [dansyl-TKCSVS] | 2.1 nM |
| Dansyl-TKCCIF (cysteine pairing not given here) [dansyl-TKCCIF] | 270 nM |
| Dansyl-TKCCIL (cysteine pairing not given here) [dansyl-TKCCIL] | 300 nM |
| Dansyl-TKCSLM [dansyl-TKCSLM] | 8 nM |
| Dansyl-TKCKIS [dansyl-TKCKIS] | 4 nM |
| Dansyl-TKCVVT [dansyl-TKCVVT] | 7 nM |
| Dansyl-TKCNIM [dansyl-TKCNIM] | 5 nM |
| Dansyl-TKCLVM [dansyl-TKCLVM] | 6 nM |
| Dansyl-TKCRIS [dansyl-TKCRIS] | 12 nM |
| Dansyl-TKCTLM [dansyl-TKCTLM] | 5.2 nM |
| Dansyl-TKCSLC (cysteine pairing not given here) [dansyl-TKCSLC] | 5 nM |
| Dansyl-TKCTII [dansyl-TKCTII] | 4.2 nM |
| Dansyl-TKCNLT [dansyl-TKCNLT] | 3.7 nM |
| Dansyl-TKCFLS [dansyl-TKCFLS] | 19 nM |
| Dansyl-TKCSIM [dansyl-TKCSIM] | 6 nM |

| Binder | Kd |
| --- | --- |
| Dansyl-TKCIVA [dansyl-TKCIVA] | 5 nM |
| Dansyl-TKCTLQ [dansyl-TKCTLQ] | 7 nM |
| Dansyl-TKCTMS [dansyl-TKCTMS] | 6 nM |
| Dansyl-TKCTLA [dansyl-TKCTLA] | 4.4 nM |
| Dansyl-TKCLIT [dansyl-TKCLIT] | 4.1 nM |
| Dansyl-TKCTKF [dansyl-TKCTKF] | 6 nM |
| Dansyl-TKCAVQ [dansyl-TKCAVQ] | 13 nM |
| Dansyl-TKCSIS [dansyl-TKCSIS] | 3.4 nM |
| Dansyl-TKCYPD [dansyl-TKCYPD] | 3.3 nM |
| Dansyl-TKCGIM [dansyl-TKCGIM] | 3.6 nM |
| Dansyl-TKCSLG [dansyl-TKCSLG] | 3.4 nM |
| Dansyl-TKCYVM [dansyl-TKCYVM] | 12 nM |
| Dansyl-TKCLLM [dansyl-TKCLLM] | 4.7 nM |
| Dansyl-TKCNLQ [dansyl-TKCNLQ] | 8 nM |
| Dansyl-TKCVLH [dansyl-TKCVLH] | 14 nM |
| Dansyl-TKCSFM [dansyl-TKCSFM] | 10 nM |
| Dansyl-TKCITQ [dansyl-TKCITQ] | 3.6 nM |

Source: patent publication US20170240926 (published 2017)
